Target: CD99 antigen (Origene, Sku #TP304058) (UniProt P14209)
Test: ELISA on coated CD99 antigen

CD99 antigen (Origene, Sku #TP304058), sequence (P14209 23-185 limits assumed): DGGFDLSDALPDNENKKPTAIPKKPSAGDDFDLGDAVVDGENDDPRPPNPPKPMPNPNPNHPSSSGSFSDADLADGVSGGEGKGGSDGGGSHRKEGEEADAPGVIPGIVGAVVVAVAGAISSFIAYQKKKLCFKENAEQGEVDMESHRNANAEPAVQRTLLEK

B1: 1H3H9 (antibody, V domains shown)
VH: EVQLQQSGAELVKPGASVKLSCTASGFDIKDTYIHWVKQRPEQGLEWIGRIDPANGDTRYDPEFQGKASLTADTSSNTAYLQFSNLTSEDTAVYYCARRGGLSWGQGTTLTVSS
VL: DIQMTQSPASLSASVGETVTITCRASGNIHNYLAWYQQKQGKSPQLLVYNAKTLADGVPSRFSGSGSGTQYSLKINSLQPEDFGSYYCQHFWSTPWTFGGGTKLEIK
  ELISA absorbance: 0.658

— US20230257477A1
